Reference: paper PMC5427921, “PRL3 phosphatase active site is required for binding the putative magnesium transporter CNNM3” (Scientific Reports, 2017)

Molecular target: T1, Human phosphatase PRL3, amino acids 1–169 (wild type) (human, UniProt O75365 1-169)
T1 construct: N-terminal extension Gly-Ser-His left after thrombin cleavage of the His tag; phosphatase of regenerating liver 3 (PRL3), human, amino acids 1-169; also called PRL3-wt; wild-type PRL3; not shown: His6, N-terminal, cleaved
Experiment: ITC; syringe 160 μM PRL2 or PRL3, cell 16 μM CNNM3 CBS-pair domain as a GST fusion; 22 °C; 30 injections of 10 μl; fitted to a single set of identical sites
Details: both partners purified

T1 sequence (O75365 other isoform, or with tags, fused parts or gaps): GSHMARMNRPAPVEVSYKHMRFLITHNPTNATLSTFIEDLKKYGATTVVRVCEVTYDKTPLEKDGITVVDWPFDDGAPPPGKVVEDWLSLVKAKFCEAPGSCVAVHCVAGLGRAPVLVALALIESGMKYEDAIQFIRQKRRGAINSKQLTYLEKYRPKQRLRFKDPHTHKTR

B1: CNNM3 CBS-pair domain as a GST fusion (domain or fragment, human)
chain: LRCRTVEDVLTPLEDCFMLDASTVLDFGVLASIMQSGHTRIPVYEEERSNIVDMLYLKDLAFVDPEDCTPLSTITRFYNHPLHFVFNDTKLDAVLEEFKRGKSHLAIVQKVNNEGEGDPFYEVLGLVTLEDVIEEIIRSEILDE
notes: CBS-pair domain of human CNNM3; also called CBS-pair (Bateman) domain of CNNM3
  Kd: 11 nM
